Experimental data from the nanobody polyreactivity screen of Harvey et al. (2022).

Test: yeast display, Sf9 membrane polyspecificity reagent, FACS + sequencing; frameworks hold sequencing errors
Method in brief: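 Galactose-induced (36–48 hours) yeast carrying a synthetic nanobody display library were exposed to 10% biotinylated, detergent-solubilized Sf9 membrane reagent at 4 °C for 1 hour. FACS followed streptavidin microbead enrichment, using low and high (top ~1%) gates for expression (anti-HA) and reagent binding (streptavidin). Colony PCR, MiSeq 2 × 250 sequencing and CDR-length filtering followed. Labels for polyreactivity reflect the gate of origin.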

Sequence	polyreactivity (PSR sort gate)
QVQLQESVGGLVQAGGSLRLSCAASGNIFPTDRMGWYRQAPGKELEFVATISDGGSTNYADSVKGRFTISRDNAKNTVYLQMNSLKPEDTAVYYCAVWSLGRWRHYYWGQGTQVTVSS	low polyreactivity
QVQLVESGGGLVQAGGSLRLSCAASGSTFRGNAMGWYRQAPGKERELVAAISSSGGSTNYADSVKGRFTISRDNAKNTVYLQMNSLKPEDTAVYYCAAERYFVWPFLLKYDYWGQGTQVTVSS	low polyreactivity
QVQLVESGGGIVQAGGRLRLSCAASGSTFPSKAMGWYRQAPGKERELVAAISRGGTTNYADSVKGRFTISRDNAKNTVYLQMNSLKPEDTAVYYCAKVYKLYWYKAYRRDYWGQGTQVTVSS	high polyreactivity
QVQLVESGGGLVQAGGSLRLSCAASGSIFPYNAMGWYRQAPGKERELVATINSRGGRTYYADSVKGRFTISRDNAKNTVYLQMNSLKPEDTAVYYCARYYSSALRYGYWGQGTQVTVSS	low polyreactivity
QVQLVESGGGLVQAGVSLRLSCAASGRIFAVNAMGWYRQAPGKERELVASIRWSGGSTYYADSVKGRFTISRDYAKNTVYLQMNSLKPEETAVYYCAAVIYLWGQGTQVTVSS	high polyreactivity
QVQLEESGGGLVQAGGSLRLSCADSGSTLYWNAMGWYRQAPGKERELVAVISESGGTTYYADSVKGRFTISRDNAKNTVYLQMNSLKPEDTAVYYCAAVWYYQFGVWGYYWGQGTQVTVSS	low polyreactivity
QVQLVESGGGLVQAGGSLRLSCAASGFIFRRYAMGSYRQAPGKERELVAAISGSGGRTYYADSVKGRFTISRDNAKNTVYLQMNSLKPEDTAVYYCAADHGSLLYDYWGQGTQVTVSS	high polyreactivity
QVQLVESGGGLVQAGGSLRISCAASGSTFSYYAMGWYRQAPGKERELVADISWSGGSTYYADSVKGRFTISRDNAKNTVYLQMNSQKPEDTAVFYCAARGYVRWYNRYDYWGQGTQVTVSS	low polyreactivity
QVQLVESGGRLVQAGGSLRLSCAASGSIFGGNDMGWYRQAPGKERELVAAITSSGGSTYYADSVKGRFTISRDNAKNTVYLQMNSLKPEDTAVYYCNADYYGPYRDYGYWGQGTQVTVSS	low polyreactivity
QVQLVQSGGGLVQAGGSLRLRCAASGRIFTPYAMGWNRQAPGQDRELVAAISASGTRTYYADSVKGRFTISRDNAKNTVYLQMKSLQAEDSAVYSCAAYKSGEPSDYWGQGTQVTVSS	high polyreactivity
QVQLVESGGGLVQAGGSLRLSCAASGFIFRWYAMGWYRQAPGKERDLVATISSGGSTYYADSVKGRFTISRDNAMNTFYLQMISLKPEDTAVYYCAARFHYRGALYYYWGQGTQVTVSS	high polyreactivity
QVQLVESGGGLVQAGGSLRLSCAASGSIFYSYAMGWYIQAHGKERELVARINYRGGSTYYADSVKGRFTISRDNAKNTVYLQMNSLKPEDTAVFYCAKRSYWSSNPRDYWGQGTKVTVSS	high polyreactivity
QVQLVETGGGLVQAGGSLRLSCAASGFTFIDYTMGWYRQAPGKERELVARITDTGSTNYEDSVKGRFTISRDT	low polyreactivity
QVQLVESGGGLVQAGGSLRLSCAASGSIFDGYAMGGSRQAPGNERELLAAISSGTSTNYADSVKGRFTISRDNAKNTVYLQMNSLKPEDTAVYYCNAYPPYLYATYDYWGQGTQVTVSS	low polyreactivity
QVQLVESGGGLVQAGGSLRLSCAASGSIFWPYAMGWYRQAPGKERELVAAISSSTGRTYYADSVKGRFTLSRDNEKNTVYLQMNSLKPEDTAVDYCAADIGTTSYRYYYWGQGTQVTVSS	high polyreactivity
QVQLVESGGGLVQAGGSLRLSCAASGLTFYLYAMGWYRPAPGKERELVAGISYRGASTYYADSVKGRFTISRDNAKNTVYLQMNSLKPEDTAVYYCAADDTTPNGVYWGQGTQVTVSS	low polyreactivity
QFQLVESGGGLVHAGGSLRLICAASGRTFVYNAMGWYRQAPGKERDLVAAISFGGGNTYYADSVKGRFTISRDNAKNTVYLQMNCLKPEDTAVYYCAKAYIGYWGASCYYAYDYWGQGTQVTVSS	low polyreactivity
QVQVVESGGGLVQAGGSLRLSCAASGRTFFFYAMGWYRQAPGKERELVAGITSRGTRTYYADSVKGRFTISRDNAKNTVYLQMNSLKPEDTAVYYCATDDSRDWLNYWGQGTQVTVSS	low polyreactivity
QVQLVESGGGLVQAGGSLRLSCAASGRTLNDYAMEWYRQAPGKERELVAGITSGDSTYYADSVKGRFTISRDNAKNTVYLQMNSLIPEDTAVYYCAADSDTFYYTGYDYDYWGQGTQVTVSS	low polyreactivity
QVQLEESGGGLVQAGGSLRLSCAASGSTFSYYAKGWYRQAPGKERELVAVISRGGSTNYADSVKGRFTISRDNAKNTVYLQMNSLKPEDTAVYYCAADAIPDSVRYWEYDYWGQGTQVTVSS	low polyreactivity
QVLLVESGGGLVQAGGSIRLSCAASGFIFWSNSLGWYRPAPGQEMELVAAISWSGGSTYYADSVKGRFTISRDNAKNNVYLEMNSVKPEDTAVYYCAARQTYGYRYTKYGYWGQGTQVTVSS	high polyreactivity
QVQLVESGGGLVQAGGRLRLSCAASGLTFEYNAMGWYRQAPGKERELVASISSGGGTNYADSVKGRFTISRDNAKNTVYLQMNSLKPVDTAVYYCATDNYDWSCWAFRGYWYDYWGQGTQVTVSS	low polyreactivity

Sequence	polyreactivity (PSR sort gate)
QVQLVESGGGLVQAGGSLRLSCAASGIIIDSNAMGWYRQAPGKERELVAAITSGGSTKYADSVKGRFTISRDNAKNTVYLQMNSLKPEDTAVYYCNADFRPADQWSYFYEMDSWGQGTQVTVSS	low polyreactivity
QVQLVESGGGLVQAGGSLRLSCAASGSTFYRNTMGWYRQAPGKERELVAAIRRSGSSTYYADSVKGRFTISRDIAKNTVYLQMNSLKREDTAVYYCAKEGLSYRYYYWGQGTQVTVSS	high polyreactivity
QVQLVESGGGLVQAGGSLRLSCAASGSTFDKNAMGWYRQAPGKERELVAAITWRGGRTYYADSVKGRFPISRDNAKNTVYLQMNSLKPEDTAVYYCNKVSWEQMDYWGQGTQVTVSS	low polyreactivity
QVQLVESGGGLVQAGGSLRLSCAASGSTFKFYAMGWYRQAPGKERELVASITSSSGPTYYADSVKGRFTISRDNAKNTVYLQLNSLKPEDTAVDYCAKRPIRYYHLLRGNYWGQGTQVTVSS	low polyreactivity
QVQLVESGGGLVQAGGSLRLSCAASGSIFDWNAMGWYRQAPGKERELVAAISGTGGTKYADSVKGRFTISRDNAKNTVYLQMNSLKPEDTAVYYCAVGLVPLRDGWHFYYEFDSWGQGTQVTVSS	low polyreactivity
QVQLQESGGGLVQAGGSLRLSCAASGYISQSSVMGWYRQAPGKEREFVASISYGATTYYADSVKGRYTISRDNAKDTVYLQTNSPKPEVTAVYYCAVCVKRGFSHRYWGQGTQVTVSS	high polyreactivity
QDQLVESGGGLVQAGGSLRLSCAASGSIFDRNAMGWYRQAPGKERELVAAITSRGGRTYYADSVKGRFTISRDNAKNTVYLQMNSLKPEDTAVYYCNAVYSQSGYFYRFDYWGQGTQVTVSS	high polyreactivity
QVQLVESGGGLVQAGGSLRLSCAASGRIFLYYAMGWYRQAPGKERELVAAIDSSGGNTNYADSVKGRFTISRDNAKNTVYFQMNSLKPEDTAVYYCAADFYVSADRWPNYDYWGQGTQVTVSS	low polyreactivity
QVQLVESGGGLVQAGGSLRLSCAASGSPFYAYAMGWYRQAPGKERQLVAAITYRDGRTNYADSVKGRFTISRDNAKNTVYLQMNSMKPEDTEVYYCARITGFTVRRYDYWGQGTQVTVSS	high polyreactivity
QVQHVESGGGLVQAGGSLRLSCAASGSIFRWYAMGWYRQAPGKERELVAGITSGGSTNYADSVKGRFTISRDNAKNTVYLQMNSLKPEDTAVYYCNARRWVGSRYDYWGQGTQVTVSS	high polyreactivity
QVQLVESGGGLVQAGGSLRLSCAASGFIFWYYAMGWSRQAPGKERELVAAISGSGGRTYYADSVKGRFTISRDNAKNTVYLQLNSLKPEDTAVYYCNARRAAYYHRARELDYWGEGTQVTVSS	high polyreactivity
QVQLVESGGGLVQAGGSLRLSCAASGRIFHPNAMGWYRRATGKERELVAAISRSGSTYYADSVKGRFTISRDNAKNTVYLQMNSLKPEDTAVYYCATQTWSGYSGTPRIYDYWGQGTQVTVSS	high polyreactivity
QVQLVESGGGLVQAGGSHRLSCAASGGIAGNTMGWYRQAPGKERELVAAITRSGGRTYYADSVKGRFTISRDNAKNTVYLQMNSLKPEDTAVYYCAVTGLVRRRYGYWGQGTQVTVSS	high polyreactivity
QVQLVESGGGLVQAGGSLRLSCAASGRIFWTYAMGWYRQAPGKERELVASITWSGGSTYYADSVKGRFTISRDNAKNTVYLQMNSLKPEDTAVYYCAADRHTYWYDYWGQGTQVTVSS	low polyreactivity
QVQLVESGGGLVQAGGSLRLSCAASGSIFKVYAMGWYRQAPGTERELVAGITLNGGSTYYADSVKGRFTISRDNAKNNVYLQMNSLKPEDTAVYYCNAVYSYYYRWYYDFDYWGQGTQVTVSS	high polyreactivity
QVQLVESGGGLVQAGGILRLSCAASGSIYGYNAMGSYRQAPGKERELVADITSSGSTYYADSVKGRFTISRDNAKNTVYLQMNSLKPEDTAVYYCAARYFVYYLEVDSWGQGTQVTVSS	low polyreactivity
QVQLVESGGGLVQAGGSLRLSSAASGSTFPNYAMGWYRQAPGKERELVAAITSSTGRTYYADSVKGRFTISRDTAKNSVYVPLHSLKPADTAVYYCNAEVYSDPYNDHDYWGQGTQVTVSS	low polyreactivity
QVQLVESGGGLVQAGGSLRLSCAASGHTLAVKAKGWYRQAPGKERELVAAITRSGVTTSYADSVKGRFTISRDNAQNTFYLQLHSVKPEDTAVSYCAAQLDASYLTGGWRRHYNYWGQGTQVTVSS	low polyreactivity
QVQLVESGGGLVQAGGSLRLSCAASGRILVDYAMGWYRQAPGKERELVAAITSTGGTTYYADSVKGRFTISRDNAKNTVYLQMNSLKPEDTAVYYCAAKRQDSWGGTYGYWGQGTQVTVSS	low polyreactivity
QVQLVESGGGLVQAGGSLRLSCAASGFIFPGNAMGWYRQAPGKEREFVAVISGSGGSTYYADSVKGRFTISRDNAKNTVYLQMNSLKPEDTAVYYCAAVYRDKSQRADYDYWGQGTQVTVSS	high polyreactivity
QVQHVESGGGLVQAGGSLRLSCAASGSIFGDNAMGWYRQAPGKERELVAAISSGGPTYADSVKGRFTISRDNAKNTVYLQMNSLKPEDTAVYYCNATDGITPYDLTDIEFDYWGQGTQVTVSS	low polyreactivity
